# Patent US20240035012A1
# How the values were obtained:
# [1] = molecular target: prefusion stabilized trimeric SARS-CoV-2 spike protein ectodomain (SARS-CoV-2) (UniProt P0DTC2)
# [2] = molecular target: prefusion stabilized trimeric SARS-CoV-2 spike protein ectodomain (SARS-CoV-2) (UniProt P0DTC2); remark: listed apart in the source
substance,measurement,setting,value
ACE2-short-3HB (receptor),Kd,[1],3.9 nM
same,IC50,[2],2.9 nM
